Measured values as given in patent US20240010673A1 (ARIZONA BOARD OF REGENTS ON BEHALF OF THE UNIVERSITY OF …, published 2024).

Target: the molecule itself
Experiment: cell-based or functional assay

B1: P-C24-P (other)
chain: MGSGSGSAPQMLRELQETNAALQDVRELLRQQVKEITFLKNTVMESDASGASYRDPMGAGAGAGPEGAGAGAGPEGAGAGAGPEGAGAGAGPEGAGAGAGPEGAGAGAGPEGAGAGAGPEGAGAGAGPEGAGAGAGPEGAGAGAGPEGARMPTSYRDPMGAGAGAGPEGAGAGAGPEGAGAGAGPEGAGAGAGPEGAGAGAGPEGAGAGAGPEGAGAGAGPEGAGAGAGPEGAGAGAGPEGAGAGAGPEGARMPTSYRDPMGAGAGAGPEGAGAGAGPEGAGAGAGPEGAGAGAGPEGARMPEFAPQMLRELQETNAALQDVRELLRQQVKEITFLKNTVMESDASGKLAAALEHHHHHH
half-life of P coiled-coil cross-linked hydrogel in bioerosion test at 25 C: ~2.6 h
